# In patent US8986682B2, “Method to increase the absorption of unsaturated fatty acids by human infants” (Swedish Orphan Biovitrum AB (publ), priority 2010, dated 2015):
# Several values for one entry are separate records, joined by “and”; a condition that tells them apart may be missing. Equal entries are not always repeated.
# Experiments:
# [1] = Specific activity with PNPB substrate, sodium cholate as bile-salt activator; format: biochemical; conditions: after HA-HPLC and SE-HPLC purification
# Method: Differences in functional properties are observed between rhBSSL-CHO and BSSL-MAM and from rhBSSL-OVI. The specific activity of rhBSSL-CHO is observed to be higher than that of the other forms of BSSL. The specific activities of BSSL-MAM and rhBSSL-OVI are only 80% of that of rhBSSL-CHO based on mass. Each sample is specifically purified by HA-HPLC and SE-HPLC before determination of specific activity. Specific activity is determined using 4-nitrophenyl ester butyric acid (PNPB) as a substrate for BSSL, and detection of the release of 4-nitrophenol. Briefly, a dilution series of rhBSSL (for example, from 20 to 160 ng activity/mL) is prepared in PBS with 0.1% BSA. 200 μl of these rhBSSL solutions is added to 25 μl of an activation solution containing 20 mM sodium cholate (as bile-salt activator) in PBS with 0.1% BSA. These solutions are preincubated in a spectrophotometer at 27° C. for 5 minutes. Just before measuring, 25 μl of a well-mixed substrate solution containing 5 mM PNPB in PBS-Tween is added. The formation of 4-nitrophenol can be detected by its absorbance at 400 nm and the increase in absorbance is measured during 90 seconds. The active amount of BSSL is determined using a standard curve of an rhBSSL reference standard.
# [2] = test system: preterm infants born before week 32 of gestational age; conditions: in vivo
# Description: (§1) The adverse event (AE) reporting period in each study began upon administration of the first dose (Day 1) of investigational medication and ended at the Follow-up Visit (1 week±3 days after the last dose of study drug intake). All AEs that occurred in a patient during the adverse event reporting period were to be reported, whether or not the event was considered medication/product related. In addition, any known untoward event that occurred subsequent to the AE reporting period that the investigator assessed as possibly, probably, or definitely related to the investigational product were also to be reported as an AE.
# (§2) MedDRA dictionary version 10.0 was used to classify all AEs reported during either study by system organ class (SOC) and preferred term (PT). All summary tables included counts of patients with treatment-emergent adverse events (TEAEs). The assessment of TEAEs was made in each individual study. […] All TEAEs, treatment related TEAEs (definite, probable, and possible), SAEs, and TEAEs leading to withdrawal of study drug were summarized by MedDRA SOC, PT, and treatment. Both the incidence (proportion of patients) and number of each TEAE were summarized. Additionally, TEAEs were summarized by maximum severity (mild, moderate, or severe). An overall summary of TEAEs was presented by treatment sequence and total and presented the number (%) of patients with TEAEs for each treatment sequence allocated to (1) BSSL only; (2) Placebo only; (3) Both BSSL and placebo; and (4) Neither Treatment.
# [3] = test system: preterm infants born before week 32 of gestational age; assay: Treatment-emergent adverse events, studies BVT.BSSL-020/-021
# Description: as §1, §2
# [4] = test system: preterm infants born before week 32 of gestational age; assay: Growth velocity (body weight) in phase II crossover studies BVT.BSSL-020/-021; format: in vivo, human; conditions: for Growth velocity, LS Mean / Growth velocity, LS Mean Difference (rhBSSL − Placebo) / Growth velocity, Maximum / Growth velocity, Mean (SD) / Growth velocity, Median / Growth velocity, Minimum: 7 days
# Method: Patients were randomized to infant formula/pasteurized breast milk supplemented with rhBSSL at a final concentration of 0.15 g/L, or to infant formula/pasteurized breast milk “supplemented” with sterile water for injection (as placebo) for the first 7 days. After a washout period of 2 days, the patient was “crossed over” to the other treatment regimen during a second 7-day treatment period. Collection of feces samples for CFA assessment were performed during the last 3 days (72 hours) of each treatment period.
# The patient's weight in grams was recorded each day using a scale with an accuracy of at least +/−5 grams and entered on the CRF. To the extent possible, body weight was measured at approximately the same time each day.
# • Growth velocity (g/kg/day): Growth velocity was defined as, for the first period, (the weight at the last assessment in the first period minus the weight at Day 1) divided by [the weight at Day 1 and (the day of the last assessment in the first period minus 1)], and for the second period, (the weight at the last assessment in the second period minus the weight at Day 10) divided by [the weight at Day 10 and (the day of the last assessment in the second period minus 10)]. The Secondary Efficacy Variables were: • CFA measured in food and feces samples collected between the tracer markers during the final 3 days (72 hours) of each treatment period. • CFA was calculated as [Fat (g/period) in food—Fat (g/period) in stool]/[Fat (g/period) in food)]*100. • Fat in food was calculated as ([Food (mL)−Vomit (mL)]*[Fat Content in Food (g/100 mL)]/100. This formula was based on the following assumptions: (a) fat content in vomit is the same as the fat content in food; (b) density of vomit is the same as density of food. • Fat content of food (formula or pasteurized breast milk) was determined using the same method as for the stool analysis and was performed by the same lab. Food (mL) and Vomit (mL) were calculated as the total amount of food or vomit recorded on or after the first tracer ingestion and prior to the second tracer ingestion. Vomit was recorded in grams on the CRF. Therefore, Vomit (mL) was calculated as Vomit (g)/Density. • There was one difference in the calculation of fat (g/period) in stool and fat content in food (g/100 mL) between the two studies. That difference relates to different contents of fatty acids in milk and formula, as described below: […]
# The primary efficacy outcome, growth velocity, was analyzed by an analysis of variance (ANOVA) with treatment, regimen (pasteurized breast milk or infant formula), period, sequence, and patient nested within regimen and sequence as factors. All main effects were tested against the residual mean square from the ANOVA model.
# [5] = Safety Analysis Set, rhBSSL N = 61
# [6] = TEAE, Safety Analysis Set, rhBSSL N = 61
# [7] = BVT.BSSL-020 (infant formula), FAS, 0.15 g/L
# [8] = BVT.BSSL-020 (infant formula), PP, 0.15 g/L
# [9] = BVT.BSSL-021 (pasteurized breast milk), FAS, 0.15 g/L
# [10] = BVT.BSSL-021 (pasteurized breast milk), PP, 0.15 g/L
# [11] = combined studies 020+021, FAS, 0.15 g/L in feed
# [12] = combined studies 020+021, PP, 0.15 g/L in feed
molecule,measurement,setting,value
"rhBSSL: recombinant human bile-salt-stimulated lipase, SEQ ID. NO. 1, expressed from recombinant CHO cells; used in both clinical trials (protein, listed as Homo sapiens) AKLGAVYTEGGFVEGVNKKLGLLGDSVDIFKGIPFAAPTKALENPQPHPGWQGTLKAKNFKKRCLQATITQDSTYGDEDCLYLNIWVPQGRKQVSRDLPVMIWIYGGAFLMGSGHGANFLNNYLYDGEEIATRGNVIVVTFNYRVGPLGFLSTGDANLPGNYGLRDQHMAIAWVKRNIAAFGGDPNNITLFGESAGGASVSLQTLSPYNKGLIRRAISQSGVALSPWVIQKNPLFWAKKVAEKVGCPVGDAARMAQCLKVTDPRALTLAYKVPLAGLEYPMLHYVGFVPVIDGDFIPADPINLYANAADIDYIAGTNNMDGHIFASIDMPAINKGNKKVTEEDFYKLVSEFTITKGLRGAKTTFDVYTESWAQDPSQENKKKTVVDFETDVLFLVPTEIALAQHRANAKSAKTYAYLFSHPSRMPVYPKWVGADHADDIQYVFGKPFATPTGYRPQDRTVSKAMIAYWTNFAKTGDPNMGDSAVPTHWEPYTTENSGYLEITKKMGSSSMKRSLRTNFLRYWTLTYLALPTVTDQEATPVPPTGDSEATPVPPTGDSETAPVPPTGDSGAPPVPPTGDSGAPPVPPTGDSGAPPVPPTGDSGAPPVPPTGDSGAPPVPPTGDSGAPPVPPTGDSGAPPVPPTGDAGPPPVPPTGDSGAPPVPPTGDSGAPPVTPTGDSETAPVPPTGDSGAPPVPPTGDSEAAPVPPTDDSKEAQMPAVIRF",Specific activity compared with the other forms of BSSL,[1],higher
same,"Urinary tract infection, n (%) of Patients",[2],1 (1.6%)
same,"Patients who died, n (%) of Patients",[3]; [5],0
same,"Patients with any TEAE, n (%) of Patients",[3]; [5],29 (47.5%)
same,"Patients with any serious TEAE, n (%) of Patients",[3]; [5],0
same,"Patients with any severe TEAE, n (%) of Patients",[3]; [5],1 (1.6%)
same,"Anemia neonatal, n (%) of Patients",[3]; [6],2 (3.3%)
same,"Anemia, n (%) of Patients",[3]; [6],3 (4.9%)
same,"Bradycardia, n (%) of Patients",[3]; [6],1 (1.6%)
same,"Cardiac murmur, n (%) of Patients",[3]; [6],4 (6.6%)
same,"Dermatitis diaper, n (%) of Patients",[3]; [6],13 (21.3%)
same,"Hypokalemia, n (%) of Patients",[3]; [6],3 (4.9%)
same,"Thrombocythemia, n (%) of Patients",[3]; [6],0
same,Tolerability when added to infant formula or pasteurized breast milk,"[3]; preterm infants, combined analysis",well tolerated
same,"Growth velocity, LS Mean",[4]; [7],18.05 g/kg/day
same,"Growth velocity, LS Mean Difference (rhBSSL − Placebo)",[4]; [7],3.74 g/kg/day
same,"Growth velocity, Maximum",[4]; [7],25.5 g/kg/day
same,"Growth velocity, Mean (SD)",[4]; [7],18.06 g/kg/day and 18.06 (3.964) g/kg/day
same,"Growth velocity, Median",[4]; [7],18.39 g/kg/day
same,"Growth velocity, Minimum",[4]; [7],9.2 g/kg/day
same,"Growth velocity, LS Mean",[4]; [8],17.75 g/kg/day
same,"Growth velocity, LS Mean Difference (rhBSSL − Placebo)",[4]; [8],2.30 g/kg/day
same,"Growth velocity, Maximum",[4]; [8],24.0 g/kg/day
same,"Growth velocity, Mean (SD)",[4]; [8],17.79 (4.013) g/kg/day
same,"Growth velocity, Median",[4]; [8],17.98 g/kg/day
same,"Growth velocity, Minimum",[4]; [8],9.2 g/kg/day
same,"Growth velocity, LS Mean",[4]; [9],15.58 g/kg/day
same,"Growth velocity, LS Mean Difference (rhBSSL − Placebo)",[4]; [9],1.95 g/kg/day
same,"Growth velocity, Maximum",[4]; [9],26.5 g/kg/day
same,"Growth velocity, Mean (SD)",[4]; [9],15.54 g/kg/day and 15.54 (4.880) g/kg/day
same,"Growth velocity, Median",[4]; [9],15.95 g/kg/day
same,"Growth velocity, Minimum",[4]; [9],7.5 g/kg/day
same,"Growth velocity, LS Mean",[4]; [10],16.47 g/kg/day
same,"Growth velocity, LS Mean Difference (rhBSSL − Placebo)",[4]; [10],1.71 g/kg/day
same,"Growth velocity, Maximum",[4]; [10],26.5 g/kg/day
same,"Growth velocity, Mean (SD)",[4]; [10],16.16 (4.856) g/kg/day
same,"Growth velocity, Median",[4]; [10],16.80 g/kg/day
same,"Growth velocity, Minimum",[4]; [10],8.3 g/kg/day
same,"Growth velocity, LS Mean",[4]; [11],16.86 g/kg/day
same,"Growth velocity, LS Mean Difference (rhBSSL − Placebo)",[4]; [11],2.93 g/kg/day
same,"Growth velocity, Maximum",[4]; [11],26.5 g/kg/day
same,"Growth velocity, Mean (SD)",[4]; [11],16.92 (4.540) g/kg/day
same,"Growth velocity, Median",[4]; [11],16.84 g/kg/day
same,"Growth velocity, Minimum",[4]; [11],7.5 g/kg/day
same,"Growth velocity, LS Mean",[4]; [12],17.15 g/kg/day
same,"Growth velocity, LS Mean Difference (rhBSSL − Placebo)",[4]; [12],2.08 g/kg/day
same,"Growth velocity, Maximum",[4]; [12],26.5 g/kg/day
same,"Growth velocity, Mean (SD)",[4]; [12],17.08 (4.424) g/kg/day
same,"Growth velocity, Median",[4]; [12],16.84 g/kg/day
same,"Growth velocity, Minimum",[4]; [12],8.3 g/kg/day
same,Relative increase of growth velocity compared to the LS mean for placebo,"[4]; combined studies, PP",13.8%
same,Relative increase of growth velocity compared to the LS mean for placebo,"[4]; formula-fed infants (BVT.BSSL-020), PP",14.9%
